From patent US20050079543A1 (ROCKEFELLER UNIVERSITY, published 2005) come the findings set out here.

The target in data set [1] is T1, Stat91L, activated (from IFN-γ-treated C91L or Cmx cells) (human, UniProt P42224 2-750, activated by IFN-γ treatment of the cells; phosphotyrosine at 701 as stated for Stat91).
T1 construct: Expressed in U3A cells that lack Stat91/84; also called long form of Stat91; MNC-91L product; not shown: C-terminal tag of 34 amino acids encoded by the pMNC vector
T1 sequence: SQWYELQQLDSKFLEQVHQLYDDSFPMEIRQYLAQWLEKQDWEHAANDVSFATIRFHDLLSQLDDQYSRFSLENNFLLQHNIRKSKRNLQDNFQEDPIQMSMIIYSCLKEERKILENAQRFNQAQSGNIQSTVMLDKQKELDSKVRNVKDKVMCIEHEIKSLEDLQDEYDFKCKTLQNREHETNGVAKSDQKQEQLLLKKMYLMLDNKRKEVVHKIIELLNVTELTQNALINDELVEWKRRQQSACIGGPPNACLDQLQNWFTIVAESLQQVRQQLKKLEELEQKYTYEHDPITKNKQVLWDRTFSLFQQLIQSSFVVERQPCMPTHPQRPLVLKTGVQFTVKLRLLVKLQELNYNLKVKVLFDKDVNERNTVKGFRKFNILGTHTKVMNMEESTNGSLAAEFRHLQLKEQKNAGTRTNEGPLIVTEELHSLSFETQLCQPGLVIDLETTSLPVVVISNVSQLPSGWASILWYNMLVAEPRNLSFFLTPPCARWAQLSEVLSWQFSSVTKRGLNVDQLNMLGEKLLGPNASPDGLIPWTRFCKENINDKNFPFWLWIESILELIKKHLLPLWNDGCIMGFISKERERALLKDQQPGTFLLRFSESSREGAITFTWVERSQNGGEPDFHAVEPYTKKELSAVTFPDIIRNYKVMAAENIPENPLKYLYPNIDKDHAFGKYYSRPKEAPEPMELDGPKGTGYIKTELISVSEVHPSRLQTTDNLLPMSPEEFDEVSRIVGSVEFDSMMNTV
The data set is described as follows: gel mobility shift with extracts of cells that express both proteins, with antisera. Here is the method:
(§1) Mobility shift analysis was performed with extracts from these stable cell lines (FIG. 18B). Extracts of IFN-γ-treated C84 cells produced a faster migrating gel shift band than extracts of treated C91L cells. Most importantly, extracts from IFN-γ-treated Cmx cells expressing both Stat84 and Stat91L proteins formed an additional intermediate gel shift band. Anti-91, an antiserum against the C-terminal 38 amino acids of Stat91 (12) that are absent in Stat84, specifically removed the top two shift bands seen with the Cmx extracts. Anti-91, an antiserum against amino acids 609 to 716 (15) that recognizes both Stat91L and Stat84, proteins inhibited the binding of all three shift bands. Thus, the middle band formed by extracts of the Cmx cells is clearly identified as a heterodimer of Stat84 and Stat91L. We concluded that both Stat91 and Stat84 bind DNA as homodimers and, if present in the same cell, will form heterodimers.

Data set [2] deals with the molecule itself. Briefly: gel mobility shift with extracts of C84 cells. How it is done: as §1

B1: Stat84, activated (from IFN-γ-treated C84 or Cmx cells) (other)
chain: SQWYELQQLDSKFLEQVHQLYDDSFPMEIRQYLAQWLEKQDWEHAANDVSFATIRFHDLLSQLDDQYSRFSLENNFLLQHNIRKSKRNLQDNFQEDPIQMSMIIYSCLKEERKILENAQRFNQAQSGNIQSTVMLDKQKELDSKVRNVKDKVMCIEHEIKSLEDLQDEYDFKCKTLQNREHETNGVAKSDQKQEQLLLKKMYLMLDNKRKEVVHKIIELLNVTELTQNALINDELVEWKRRQQSACIGGPPNACLDQLQNWFTIVAESLQQVRQQLKKLEELEQKYTYEHDPITKNKQVLWDRTFSLFQQLIQSSFVVERQPCMPTHPQRPLVLKTGVQFTVKLRLLVKLQELNYNLKVKVLFDKDVNERNTVKGFRKFNILGTHTKVMNMEESTNGSLAAEFRHLQLKEQKNAGTRTNEGPLIVTEELHSLSFETQLCQPGLVIDLETTSLPVVVISNVSQLPSGWASILWYNMLVAEPRNLSFFLTPPCARWAQLSEVLSWQFSSVTKRGLNVDQLNMLGEKLLGPNASPDGLIPWTRFCKENINDKNFPFWLWIESILELIKKHLLPLWNDGCIMGFISKERERALLKDQQPGTFLLRFSESSREGAITFTWVERSQNGGEPDFHAVEPYTKKELSAVTFPDIIRNYKVMAAENIPENPLKYLYPNIDKDHAFGKYYSRPKEAPEPMELDGPKGTGYIKTELISVSEV
modifications: activated by IFN-γ treatment of the cells (tyrosine phosphorylation; Tyr-701 is stated for Stat91)
notes: Expressed in U3A cells that lack Stat91/84; also called MNC-84 product
Take B1: the binding result in data set [1] and in data set [2] was “binds” each time.
